According to patent US20230340111A1 (published 2023):

How the values were obtained:
[1] = target: T1, human FOLR1 recombinant protein (extracellular domain of human folate receptor alpha) (human, UniProt P15328 25-233); assay: SPR dual injection on immobilized human FOLR1, 250 nM; competitor (1st VHH, saturating) A4; by the legend the value is of the 2nd VHH
T1 construct: Bought recombinant protein (Sino Biological); also called hFOLR1; FR-alpha
Protocol: (§1) Competitive binding characteristics of His₆-tagged VHHs were determined via surface plasmon resonance with a Biacore T200 instrument (GE Healthcare). Immobilization of human FOLR1 recombinant protein (Sino Biological) and regeneration were performed as described below for kinetic measurements.
(§2) Table 8: Side-by-side comparison of His₆-tagged VHHs A1, A2, A3, A4, A5 for binding to human FOLR1 to identify competitive binding characteristics. Binding was measured in surface plasmon resonance with immobilized human FOLR1 recombinant protein as the ligand. After saturation of the ligand with VHH 1 an equimolar mixture of VHH 1 and VHH 2 was injected. Percentages express the loss in response level of VHH 2, relative to the response when VHH 2 was injected alone.

[2] = target: T1, human FOLR1 recombinant protein …; assay: SPR dual injection on immobilized human FOLR1, 250 nM; competitor (1st VHH, saturating) A1; by the legend the value is of the 2nd VHH
Protocol: as §1, §2

[3] = target: T1, human FOLR1 recombinant protein …; assay: SPR dual injection on immobilized human FOLR1, 250 nM; competitor (1st VHH, saturating) A5; by the legend the value is of the 2nd VHH
Protocol: as §1, §2

[4] = target: T1, human FOLR1 recombinant protein …; assay: SPR (Biacore T200), single cycle kinetics, His6-tagged VHH immobilized on CM5, human FOLR1 as analyte, 1:1 fit
Protocol: The kinetic parameters of antigen binding for purified VHHs A1, A2 and A3 were determined via surface plasmon resonance with a Biacore T200 instrument (GE Healthcare) using single cycle kinetics mode. While example 4d provides a first and preferred way of assessing the kinetic parameters of antigen binding for VHHs using surface plasmon resonance, this example provides an alternative setup for using surface plasmon resonance to assess the kinetic parameters of antigen binding, inverting the analyte and immobilized ligand. His₆-tagged VHH A1, A2 or A3 was immobilized in 10 mM sodium acetate, pH 5.5 on a CM5 chip (GE Healthcare) via amine coupling chemistry to 160 RU. The human FOLR1 recombinant protein (Sino Biological) was analyzed in a threefold serial dilution in HBS (38.5 nM-0.47 nM) with an analyte flow rate of 30 µl/min. The association phase took 180 s for every concentration and the dissociation phase 900 s. Regeneration was done by a single injection of 50 mM glycine-HCl, pH 2.5, 2 M MgCl2 for 30 s at 30 µl/min, followed by 120 s stabilization. Binding curves were fitted using a ‘1:1 (antigen:analyte)’ binding model in Biacore T200 evaluation software.

[5] = target: T1, human FOLR1 recombinant protein …; assay: SPR (Biacore T200), human FOLR1 immobilized on CM5, His6-tagged VHH as analyte, 1:1 fit
Protocol: The kinetic parameters of antigen binding by purified VHHs were determined via surface plasmon resonance with a Biacore T200 instrument (GE Healthcare). The human FOLR1 recombinant protein (Sino Biological) was immobilized in 10 mM sodium acetate, pH 5.5 on a CM5 chip (GE Healthcare) via amine coupling chemistry to 500 RU. His₆-tagged VHHs were analyzed in a twofold serial dilution in HBS (125 nM-0.488 nM for VHHs A4 and A5; 10 nM-0.039 nM for VHHs A1, A2 and A3) with an analyte flow rate of 30 µl/min. The association phase took 180 s (A4-A5) or 450 s (A1-A3) and the dissociation phase 600 s (A4-A5) or 900 s (A1-A3). Regeneration was done by a single injection of 50 mM glycine-HCl, pH 2.5, 2 M MgCl₂ for 30 s at 30 µl/min, followed by 120 s stabilization. Binding curves were fitted using a ‘1:1 (antigen:analyte)’ binding model in Biacore T200 evaluation software.

[6] = target: T2, human FOLR1 expressed on SKOV-3 ovarian carcinoma cells (human, UniProt P15328 25-234); assay: saturation binding of 131I-labelled His6-tagged VHH on SKOV-3 cells (0-300 nM); non-specific binding by 100-fold unlabelled VHH
T2 construct: Naturally expressed receptor on SKOV-3 cells; also called human FOLR1pos SKOV-3 cancer cells; human FOLR1-expressing cell line SKOV-3
Protocol: In a first part, their in vitro behaviour was assessed by means of investigating their cellular binding and retention over time. The binding potential of the resulting radioconjugates was assessed to confirm that this was not affected by the introduction of ¹³¹I-SGMIB into the amino acid sequence of the different VHHs. To this, human FOLR1^pos SKOV-3 cancer cells were incubated with serial dilutions with concentrations ranging from 0 to 300 nM of the different ¹³¹I-labelled, His₆ tagged VHHs. A 100-fold excess of the corresponding unlabeled VHH was added in parallel to saturate the human FOLR1 receptors expressed on cancer cells, to assess non-specific binding.

[7] = target: T2, human FOLR1 expressed on SKOV-3 ovarian …; assay: cellular retention on SKOV-3 cells: 10 nM 131I-VHH 1 h at 4 C, then up to 24 h at 37 C; membrane-bound plus internalized fraction
Protocol: The in vitro cellular retention of the different His₆- and untagged ¹³¹I-labeled VHHs was assessed on the same cancer cells. In this particular case, human FOLR1^pos SKOV-3 cancer cells were incubated with 10 nM ¹³¹I-labelled VHHs for 1h at 4° C., after which the unbound fraction was collected. A 100-fold excess of the corresponding unlabeled VHH to assess non-specific binding. Next, the cells were incubated with fresh medium up to 24 h at 37° C., after which the dissociated fraction was collected. Afterwards, the cells were washed with 0.05 M glycine pH 2.8 to collect the membrane-bound fraction. Finally, cells were solubilized with 1 M NaOH at room temperature to collect the internalized fraction. The sum of the membrane-bound and internalized fractions corresponds to the total cell-associated fraction.

[8] = target: T3, human folate receptor beta (FOLR2), extracellular domain, recombinant (human, UniProt P14207 17-228, limits assumed); assay: ELISA, coated recombinant protein, HA-tagged VHH in bacterial extract
T3 construct: extracellular domain; Bought protein; also called human FOLR2
Protocol: (§3) The day before, 0.1 µg recombinant protein at a concentration of 1 µg/mL in 100 mM NaHCO3, pH 8.2 was coated in a 96-well ELISA plate (Nunc MaxiSorp). Per VHH clone also a blank coated well was foreseen (only buffer). The wells were overcoated with protein-free T20 (PBS) blocking buffer (Pierce). After washing with PBS, pH7.4, 0.05% Tween, VHH-containing bacterial extract was added to every well. Binding of HA-tagged VHHs was detected by using mouse anti-HA.11 epitope tag (clone 16B12, Biolegend) as the primary Ab and goat anti-mouse IgG (whole molecule) alkaline phosphatase conjugate (Sigma-Aldrich) as the secondary Ab, with thorough washing with PBS, pH 7.4, 0.05% Tween in between. Signals were developed using phosphatase substrate (Sigma-Aldrich) in AP blot buffer (100 mM NaCl, 50 mM MgCl2, 100 mM Tris, pH 9.5). The absorbance was determined at 405 nm using an absorbance microplate reader (Molecular Devices). Per clone the ratio was determined between the absorbance in the antigen-coated well versus the well without antigen.

[9] = target: T4, murine FOLR1, extracellular domain, recombinant (murine, UniProt P35846 25-232); assay: as above
T4 construct: extracellular domain; Bought protein; also called mouse FOLR1
Protocol: as §3

[10] = target: T5, human folate receptor gamma (FOLR3), recombinant (human, UniProt P41439 23-245, limits assumed); assay: as above
T5 construct: extracellular domain; Bought protein; also called human FOLR3
Protocol: as §3

[11] = target: T3, human folate receptor beta (FOLR2), …; assay: ELISA; coated recombinant protein, HA-tagged VHH in bacterial extract, anti-HA detection; A405 antigen well / blank well
Protocol: as §3

[12] = target: T4, murine FOLR1, extracellular domain, …; assay: as above
Protocol: as §3

[13] = target: T5, human folate receptor gamma (FOLR3), …; assay: as above
Protocol: as §3

[14] = target: human FOLR1 recombinant protein (extracellular domain of human folate receptor alpha) (human) (UniProt P15328); assay: as above
[15] = target: T1, human FOLR1 recombinant protein …; assay: SPR dual injection on immobilized human FOLR1, 250 nM; competitor (1st VHH, saturating) A3; by the legend the value is of the 2nd VHH
Protocol: as §1, §2

T1 sequence (P15328 25-233): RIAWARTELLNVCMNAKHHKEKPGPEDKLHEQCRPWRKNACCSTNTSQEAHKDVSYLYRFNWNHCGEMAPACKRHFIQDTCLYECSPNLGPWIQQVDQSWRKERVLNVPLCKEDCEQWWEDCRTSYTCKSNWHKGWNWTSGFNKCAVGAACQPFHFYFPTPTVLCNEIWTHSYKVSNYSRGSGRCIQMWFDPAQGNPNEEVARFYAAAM
T5 sequence (P41439 23-245 limits assumed): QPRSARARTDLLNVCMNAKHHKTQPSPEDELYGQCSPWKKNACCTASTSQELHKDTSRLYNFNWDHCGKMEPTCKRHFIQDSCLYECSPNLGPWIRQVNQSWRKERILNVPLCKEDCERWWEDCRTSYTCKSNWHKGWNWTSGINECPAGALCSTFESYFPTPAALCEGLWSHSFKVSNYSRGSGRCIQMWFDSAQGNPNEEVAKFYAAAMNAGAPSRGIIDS
T2 sequence (P15328 25-234 limits assumed): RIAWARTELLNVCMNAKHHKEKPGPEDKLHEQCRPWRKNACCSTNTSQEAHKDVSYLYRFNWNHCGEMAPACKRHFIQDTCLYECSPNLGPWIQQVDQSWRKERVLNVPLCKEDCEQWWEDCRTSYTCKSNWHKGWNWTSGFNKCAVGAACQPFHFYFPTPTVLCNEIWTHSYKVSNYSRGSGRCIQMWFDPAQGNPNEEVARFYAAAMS
T3 sequence (P14207 17-228 limits assumed): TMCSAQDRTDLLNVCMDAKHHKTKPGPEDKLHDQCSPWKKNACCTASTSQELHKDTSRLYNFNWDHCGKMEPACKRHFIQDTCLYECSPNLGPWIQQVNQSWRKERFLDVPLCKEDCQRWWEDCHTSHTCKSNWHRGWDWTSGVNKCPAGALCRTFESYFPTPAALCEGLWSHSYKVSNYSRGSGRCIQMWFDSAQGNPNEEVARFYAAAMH
Chain of human FOLR1 recombinant protein (extracellular domain of human folate receptor alpha) (human) (P15328 25-233): as the sequence (P15328 25-233) above
T4 sequence (P35846 25-232 limits assumed): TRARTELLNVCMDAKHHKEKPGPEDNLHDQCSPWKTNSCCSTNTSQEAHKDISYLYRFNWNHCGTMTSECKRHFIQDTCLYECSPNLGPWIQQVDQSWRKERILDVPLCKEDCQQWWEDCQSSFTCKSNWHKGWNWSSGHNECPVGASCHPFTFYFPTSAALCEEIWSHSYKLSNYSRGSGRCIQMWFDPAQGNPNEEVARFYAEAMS

B1: His6-tagged variant of VHH A3 (VHH)
VHH: DVQLVESGGGLVQAGGSLRLSCGVSGNMFSMNLMGWYRQPPGKERDWVAVITKDGSTNYADSVKGRFTISRDNAKNTVSLQMNSLKPEDTAVYYCNVQDGSGWIRAWGWDWGQGTQVTVSS
notes: Purified, unlabelled; also called A3 His6-tag
Question: With B1 as the binder, how does the “loss in response level of VHH 2 relative to VHH 2 injected alone” value [1] read?
Answer: -97%

Question: And the “loss in response level of VHH 2 relative to VHH 2 injected alone” value [2]?
Answer: -97%

Question: What about the “loss in response level of VHH 2 relative to VHH 2 injected alone” value [3] of the same binder?
Answer: -89%

Question: What about the Kd [4] of the same binder?
Answer: 1.9 nM

Question: What about the koff [4] of the same binder?
Answer: 0.00063 s⁻¹

Question: And the kon [4]?
Answer: 330000 M⁻¹ s⁻¹

Question: What about the Kd [5] of the same binder?
Answer: 0.92 nM

Question: What about the koff [5] of the same binder?
Answer: 0.0011 s⁻¹

Question: And the kon [5]?
Answer: 1.2e+06 M⁻¹ s⁻¹

B2: 131I-labeled His6-tagged VHH A3 (VHH)
VHH: DVQLVESGGGLVQAGGSLRLSCGVSGNMFSMNLMGWYRQPPGKERDWVAVITKDGSTNYADSVKGRFTISRDNAKNTVSLQMNSLKPEDTAVYYCNVQDGSGWIRAWGWDWGQGTQVTVSS
modifications: [131I]SGMIB conjugated to lysine side-chain amine groups
Question: What does the source list for B2?
Answer: EC50 [6]: 4.5 nM; cell-associated fraction of initial bound activity after 24 h [7]: 20%

B3: 131I-labeled His6-tagged VHH A4 (VHH)
VHH: DVQLVESGGGLARAGGSLRLSCAASGRAFSSTYAMGWFRQAPGKEREFVADINWSEGSPMYIDSVKDRFTISRDNARNSLYLQMNSLKSEDTAVYYCAARRFGQGYEYWGQGTQVTVSS
modifications: [131I]SGMIB conjugated to lysine side-chain amine groups
Question: Which EC50 [6] does the source give for B3 here?
Answer: 5.8 nM

Question: What about the “cell-associated fraction of initial bound activity after 24 h” value [7] of the same binder?
Answer: 10%

B4: HA-tagged variant of VHH A1 (VHH)
VHH: QVQLQESGGGLVQPGGSLRLSCAASESIFSRNHMSWYRQAPGKQRELAAIITSDGNTNYPDSVKGRFTISRDNAKNTVYLQMNSLKPEDTAVYYCNTFGRSVAGFYDYWGQGTQVTVSS
notes: Used as VHH-containing bacterial (periplasmic) extract in ELISA; also called A1 HA-tag
Question: Does B4 bind [8]?
Answer: no binding

Question: Does B4 bind [9]?
Answer: no binding

Question: Does B4 bind [10]?
Answer: no binding

Question: What about the signal-to-background ratio [11] of the same binder?
Answer: ~1

Question: And the signal-to-background ratio [12]?
Answer: ~1

Question: What about the signal-to-background ratio [13] of the same binder?
Answer: ~1

Question: What about the signal-to-background ratio [14] of the same binder?
Answer: > 20

B5: 131I-labeled His6-tagged VHH A1 (VHH)
VHH: DVQLVESGGGLVQPGGSLRLSCAASESIFSRNHMSWYRQAPGKQRELAAIITSDGNTNYPDSVKGRFTISRDNAKNTVYLQMNSLKPEDTAVYYCNTFGRSVAGFYDYWGQGTQVTVSS
modifications: [131I]SGMIB conjugated to lysine side-chain amine groups
Question: With B5 as the binder, how does the EC50 [6] read?
Answer: 0.7 nM

Question: And the “cell-associated fraction of initial bound activity after 24 h” value [7]?
Answer: ~40%

B6: HA-tagged variant of VHH A2 (VHH)
VHH: QVQLQESGGGLVQAGGSLRLSCAADEMKFSNYDLAWYRRAPGKQRELAAIITSGGSTNYPDSVKGRFTISRDNAKNTVYLEMNSLKPEDTAVYYCNALRPWPQFSDYWGQGTQVTVSS
notes: Used as VHH-containing bacterial (periplasmic) extract in ELISA; also called A2 HA-tag
Question: What does the source list for B6?
Answer: binding result [8]: no binding; binding result [10]: no binding; signal-to-background ratio [11]: ~1; signal-to-background ratio [13]: ~1; signal-to-background ratio [14]: > 20

B7: 131I-labeled His6-tagged VHH A2 (VHH)
VHH: DVQLVESGGGLVQAGGSLRLSCAADEMKFSNYDLAWYRRAPGKQRELAAIITSGGSTNYPDSVKGRFTISRDNAKNTVYLEMNSLKPEDTAVYYCNALRPWPQFSDYWGQGTQVTVSS
modifications: [131I]SGMIB conjugated to lysine side-chain amine groups
Question: Which EC50 [6] does the source give for B7 here?
Answer: 1.1 nM

Question: And the “cell-associated fraction of initial bound activity after 24 h” value [7]?
Answer: ~60%

B8: His6-tagged variant of VHH A2 (VHH)
VHH: DVQLVESGGGLVQAGGSLRLSCAADEMKFSNYDLAWYRRAPGKQRELAAIITSGGSTNYPDSVKGRFTISRDNAKNTVYLEMNSLKPEDTAVYYCNALRPWPQFSDYWGQGTQVTVSS
notes: Purified, unlabelled; also called A2 His6-tag
Question: For B8, which “loss in response level of VHH 2 relative to VHH 2 injected alone” value [1] is on record?
Answer: -96%

Question: What about the “loss in response level of VHH 2 relative to VHH 2 injected alone” value [2] of the same binder?
Answer: -96%

Question: And the “loss in response level of VHH 2 relative to VHH 2 injected alone” value [3]?
Answer: -86%

Question: What about the Kd [4] of the same binder?
Answer: 1.5 nM

Question: What about the koff [4] of the same binder?
Answer: 0.00068 s⁻¹

Question: And the kon [4]?
Answer: 440000 M⁻¹ s⁻¹

Question: And the Kd [5]?
Answer: 0.24 nM

Question: What about the koff [5] of the same binder?
Answer: 0.00033 s⁻¹

Question: And the kon [5]?
Answer: 1.3e+06 M⁻¹ s⁻¹

Question: What about the “loss in response level of VHH 2 relative to VHH 2 injected alone” value [15] of the same binder?
Answer: -99%
